Measurements: the RNAGym collection of RNA variant scans (doi:10.7554/elife.90254)

B1: LINE1-full (parent)
chain: UACGUAGGUGGUUUUCCCCUGAUAGUGCUAAGGGGGCCUGGAAGUUUGGACUGGGCAGAGCUCAACACAGCGUGGCAAAGUGGCUGUGGCUAGACUGCCUCUCUGGAUUCCUCGUCACUCAGCAGGGCAUCUCUGAGAGAAAUGCC

Variants of: B1
Experiment: self-cleavage, relative activity (ratio to wild type); higher = more cleavage; in vitro, sequencing; the parent is a self-cleaving ribozyme

Variant | self-cleavage
UACGUAGGUGGUUUUCCCCUGAUAGUGCUAAGGGGGCCUGGAAGUUAGGACUGGGCAGAGCUCAACUCAGCGUGGCAAAGUGGCUGUGGCUAGACUGCCUCUCUGGAUUCCUCGUCACUCAGCAGGGCAUCUCUGAGAGAAAUGCC | 0.12
UACGUAGGUGGUUUUCCCCUGAUAGUGCUAAGGGGGCCUGGAAGUUAGGACUGGGCAGAGCUCAACACGGCGUGGCAAAGUGGCUGUGGCUAGACUGCCUCUCUGGAUUCCUCGUCACUCAGCAGGGCAUCUCUGAGAGAAAUGCC | 0.52
UACGUAGGUGGUUUUCCCCUGAUAGUGCUAAGGGGGCCUGGAAGUUAGGACUGGGCAGAGCUCAACACAGCGUGGCGAAGUGGCUGUGGCUAGACUGCCUCUCUGGAUUCCUCGUCACUCAGCAGGGCAUCUCUGAGAGAAAUGCC | 2.01
UACGUAGGUGGUUUUCCCCUGAUAGUGCUAAGGGGGCCUGGAAGUUAGGACUGGGCAGAGCUCAACACAGCGUGGCAAAGUGGCUGUGGCUAGGCUGCCUCUCUGGAUUCCUCGUCACUCAGCAGGGCAUCUCUGAGAGAAAUGCC | 0.23
UACGUAGGUGGUUUUCCCCUGAUAGUGCUAAGGGGGCCUGGAAGUUAGGACUGGGCAGAGCUCAACACAGCGUGGCAAAGUGGCUGUGGCUAGACUGCCUCUCUGGGUUCCUCGUCACUCAGCAGGGCAUCUCUGAGAGAAAUGCC | 0.95
UACGUAGGUGGUUUUCCCCUGAUAGUGCUAAGGGGGCCUGGAAGUUAGGACUGGGCAGAGCUCAACACAGCGUGGCAAAGUGGCUGUGGCUAGACUGCCUCUCUGGAUUCCUCGUCCCUCAGCAGGGCAUCUCUGAGAGAAAUGCC | 1.32
UACGUAGGUGGUUUUCCCCUGAUAGUGCUAAGGGGGCCUGGAAGUUAGGACUGGGCAGAGCUCAACACAGCGUGGCAAAGUGGCUGUGGCUAGACUGCCUCUCUGGAUUCCUCGUCGCUCAGCAGGGCAUCUCUGAGAGAAAUGCC | 1.38
UACGUAGGUGGUUUUCCCCUGAUAGUGCUAAGGGGGCCUGGAAGUUAGGACUGGGCAGAGCUCAACACAGCGUGGCAAAGUGGCUGUGGCUAGACUGCCUCUCUGGAUUCCUCGUCUCUCAGCAGGGCAUCUCUGAGAGAAAUGCC | 1.25
UACGUAGGUGGUUUUCCCCUGAUAGUGCUAAGGGGGCCUGGAAGUUAGGACUGGGCAGAGCUCAACACAGCGUGGCAAAGUGGCUGUGGCUAGACUGCCUCUCUGGAUUCCUCGUCACUCCGCAGGGCAUCUCUGAGAGAAAUGCC | 1.49
UACGUAGGUGGUUUUCCCCUGAUAGUGCUAAGGGGGCCUGGAAGUUAGGACUGGGCAGAGCUCAACACAGCGUGGCAAAGUGGCUGUGGCUAGACUGCCUCUCUGGAUUCCUCGUCACUCAGCCGGGCAUCUCUGAGAGAAAUGCC | 1.18
UACGUAGGUGGUUUUCCCCUGAUAGUGCUAAGGGGGCCUGGAAGUUAGGACUGGGCAGAGCUCAACACAGCGUGGCAAAGUGGCUGUGGCUAGACUGCCUCUCUGGAUUCCUCGUCACUCAGCAGGGCAUCUCUGGGAGAAAUGCC | 1.52
UACGUAGGUGGUUUUCCCCUGAUAGUGCUAAGGGGGCCUGGAAGUUAGGACUGGGCAGAGCUCAACACAGCGUGGCAAAGUGGCUGUGGCUAGACUGCCUCUCUGGAUUCCUCGUCACUCAGCAGGGCAUCUCUGAGUGAAAUGCC | 1.59
UACGUAGGUGGUUUUCCCCUGAUAGUGCUAAGGGGGCCUGGAAGUUAGGACUGGGCAGAGCUCAACACAGCGUGGCAAAGUGGCUGUGGCUAGACUGCCUCUCUGGAUUCCUCGUCACUCAGCAGGGCAUCUCUGAGAGGAAUGCC | 0.99
UACGUAGGUGGUUUUCCCCUGAUAGUGCUAAGGGGGCCUGGAAGUUAGGACUGGGCAGAGCUCAACACAGCGUGGCAAAGUGGCUGUGGCUAGACUGCCUCUCUGGAUUCCUCGUCACUCAGCAGGGCAUCUCUGAGAGAGAUGCC | 1.37
UACGUAGGUGGUUUUCCCCUGAUAGUGCUAAGGGGGCCUGGAAGUUAGGACUGGGUAGAGCUCAACACAGCGUGGCAAAGUGGCUGUGGCUAGACUGCCUCUCUGGAUUCCUCGUCACUCAGCAGGGCAUCUCUGAGAGAAAUGCC | 0.14
UACGUAGGUGGUUUUCCCCUGAUAGUGCUAAGGGGGCCUGGAAGUUAGGACUGGGCAGAGAUCAACACAGCGUGGCAAAGUGGCUGUGGCUAGACUGCCUCUCUGGAUUCCUCGUCACUCAGCAGGGCAUCUCUGAGAGAAAUGCC | 0.03
UACGUAGGUGGUUUUCCCCUGAUAGUGCUAAGGGGGCCUGGAAGUUAGGACUGGGCAGAGCUCAACACAGUGUGGCAAAGUGGCUGUGGCUAGACUGCCUCUCUGGAUUCCUCGUCACUCAGCAGGGCAUCUCUGAGAGAAAUGCC | 0.9
UACGUAGGUGGUUUUCCCCUGAUAGUGCUAAGGGGGCCUGGAAGUUAGGACUGGGCAGAGCUCAACACAGCGUGGCAAAGUGGAUGUGGCUAGACUGCCUCUCUGGAUUCCUCGUCACUCAGCAGGGCAUCUCUGAGAGAAAUGCC | 0.14
UACGUAGGUGGUUUUCCCCUGAUAGUGCUAAGGGGGCCUGGAAGUUAGGACUGGGCAGAGCUCAACACAGCGUGGCAAAGUGGUUGUGGCUAGACUGCCUCUCUGGAUUCCUCGUCACUCAGCAGGGCAUCUCUGAGAGAAAUGCC | 0.09
UACGUAGGUGGUUUUCCCCUGAUAGUGCUAAGGGGGCCUGGAAGUUAGGACUGGGCAGAGCUCAACACAGCGUGGCAAAGUGGCUGUGGCUAGACUGCAUCUCUGGAUUCCUCGUCACUCAGCAGGGCAUCUCUGAGAGAAAUGCC | 0.48

Variant | self-cleavage
UACGUAGGUGGUUUUCCCCUGAUAGUGCUAAGGGGGCCUGGAAGUUAGGACUGGGCAGAGCUCAACACAGCGUGGCAAAGUGGCUGUGGCUAGACUGCUUCUCUGGAUUCCUCGUCACUCAGCAGGGCAUCUCUGAGAGAAAUGCC | 0.3
UACGUAGGUGGUUUUCCCCUGAUAGUGCUAAGGGGGCCUGGAAGUUAGGACUGGGCAGAGCUCAACACAGCGUGGCAAAGUGGCUGUGGCUAGACUGCCUCUCUGGAUUCCUCGUCAAUCAGCAGGGCAUCUCUGAGAGAAAUGCC | 0.95
UACGUAGGUGGUUUUCCCCUGAUAGUGCUAAGGGGGCCUGGAAGUUAGGACUGGGCAGAGCUCAACACAGCGUGGCAAAGUGGCUGUGGCUAGACUGCCUCUCUGGAUUCCUCGUCACUAAGCAGGGCAUCUCUGAGAGAAAUGCC | 1.36
UACGUAGGUGGUUUUCCCCUGAUAGUGCUAAGGGGGCCUGGAAGUUAGGACUGGGCAGAGCUCAACACAGCGUGGCAAAGUGGCUGUGGCUAGACUGCCUCUCUGGAUUCCUCGUCACUCAGCAGGGUAUCUCUGAGAGAAAUGCC | 1.39
UACGUAGGUGGUUUUCCCCUGAUAGUGCUAAGGGGGCCUGGAAGUUAGGACUAGGCAGAGCUCAACACAGCGUGGCAAAGUGGCUGUGGCUAGACUGCCUCUCUGGAUUCCUCGUCACUCAGCAGGGCAUCUCUGAGAGAAAUGCC | 1.23
UACGUAGGUGGUUUUCCCCUGAUAGUGCUAAGGGGGCCUGGAAGUUAGGACUGGGCAGAGCUCAACACAGCGUGGCAAAGUAGCUGUGGCUAGACUGCCUCUCUGGAUUCCUCGUCACUCAGCAGGGCAUCUCUGAGAGAAAUGCC | 2.27
UACGUAGGUGGUUUUCCCCUGAUAGUGCUAAGGGGGCCUGGAAGUUAGGACUGGGCAGAGCUCAACACAGCGUGGCAAAGUGGCUGUAGCUAGACUGCCUCUCUGGAUUCCUCGUCACUCAGCAGGGCAUCUCUGAGAGAAAUGCC | 0.01
UACGUAGGUGGUUUUCCCCUGAUAGUGCUAAGGGGGCCUGGAAGUUAGGACUGGGCAGAGCUCAACACAGCGUGGCAAAGUGGCUGUGGCUAGACUGCCUCUCUGAAUUCCUCGUCACUCAGCAGGGCAUCUCUGAGAGAAAUGCC | 1.3
UACGUAGGUGGUUUUCCCCUGAUAGUGCUAAGGGGGCCUGGAAGUUAGGACUGGGCAGAGCUCAACACAGCGUGGCAAAGUGGCUGUGGCUAGACUGCCUCUCUGGAUUCCUCGUCACUCAGCAAGGCAUCUCUGAGAGAAAUGCC | 1.11
UACGUAGGUGGUUUUCCCCUGAUAGUGCUAAGGGGGCCUGGAAGUUAGGACUGGGCAGAGCUCAACACAGCGUGGCAAAGUGGCUGUGGCUAGACUGCCUCUCUGGAUUCCUCGUCACUCAGCACGGCAUCUCUGAGAGAAAUGCC | 1.49
UACGUAGGUGGUUUUCCCCUGAUAGUGCUAAGGGGGCCUGGAAGUUAGGACAGGGCAGAGCUCAACACAGCGUGGCAAAGUGGCUGUGGCUAGACUGCCUCUCUGGAUUCCUCGUCACUCAGCAGGGCAUCUCUGAGAGAAAUGCC | 1.84
UACGUAGGUGGUUUUCCCCUGAUAGUGCUAAGGGGGCCUGGAAGUUAGGACUGGGCAGAGCUCAACACAGCGAGGCAAAGUGGCUGUGGCUAGACUGCCUCUCUGGAUUCCUCGUCACUCAGCAGGGCAUCUCUGAGAGAAAUGCC | 1.11
UACGUAGGUGGUUUUCCCCUGAUAGUGCUAAGGGGGCCUGGAAGUUAGGACUGGGCAGAGCUCAACACAGCGCGGCAAAGUGGCUGUGGCUAGACUGCCUCUCUGGAUUCCUCGUCACUCAGCAGGGCAUCUCUGAGAGAAAUGCC | 1.45
UACGUAGGUGGUUUUCCCCUGAUAGUGCUAAGGGGGCCUGGAAGUUAGGACUGGGCAGAGCUCAACACAGCGUGGCAAAGAGGCUGUGGCUAGACUGCCUCUCUGGAUUCCUCGUCACUCAGCAGGGCAUCUCUGAGAGAAAUGCC | 1.11
UACGUAGGUGGUUUUCCCCUGAUAGUGCUAAGGGGGCCUGGAAGUUAGGACUGGGCAGAGCUCAACACAGCGUGGCAAAGUGGCAGUGGCUAGACUGCCUCUCUGGAUUCCUCGUCACUCAGCAGGGCAUCUCUGAGAGAAAUGCC | 0.04
UACGUAGGUGGUUUUCCCCUGAUAGUGCUAAGGGGGCCUGGAAGUUAGGACUGGGCAGAGCUCAACACAGCGUGGCAAAGUGGCGGUGGCUAGACUGCCUCUCUGGAUUCCUCGUCACUCAGCAGGGCAUCUCUGAGAGAAAUGCC | 0.17
UACGUAGGUGGUUUUCCCCUGAUAGUGCUAAGGGGGCCUGGAAGUUAGGACUGGGCAGAGCUCAACACAGCGUGGCAAAGUGGCUGCGGCUAGACUGCCUCUCUGGAUUCCUCGUCACUCAGCAGGGCAUCUCUGAGAGAAAUGCC | 0.19
UACGUAGGUGGUUUUCCCCUGAUAGUGCUAAGGGGGCCUGGAAGUUAGGACUGGGCAGAGCUCAACACAGCGUGGCAAAGUGGCUGUGGCUAGACAGCCUCUCUGGAUUCCUCGUCACUCAGCAGGGCAUCUCUGAGAGAAAUGCC | 0.08
UACGUAGGUGGUUUUCCCCUGAUAGUGCUAAGGGGGCCUGGAAGUUAGGACUGGGCAGAGCUCAACACAGCGUGGCAAAGUGGCUGUGGCUAGACUGCCCCUCUGGAUUCCUCGUCACUCAGCAGGGCAUCUCUGAGAGAAAUGCC | 1.81
